PMC5335569, “Biophysical studies suggest a new structural arrangement of crotoxin and provide insights into its toxic mechanism” (Scientific Reports, 2017)

Target: the molecule itself
Test: small angle X-ray scattering

B1: Crotoxin B (enzyme)
chain: HLLQFNKMIKFETRKNAVPFYAFYGCYCGWGGQGRPKDATDRCCFVHDCCYGKLAKCNTKWDIYRYSLKSGYITCGKGTWCEEQICECDRVAAECLRRSLSTYKNGYMFYPDSRCRGPSETC
  stoichiometry N: 4
